The values that follow come from IntAct's records for PubMed 22512862.

The labels stand for the following.
B1: Phosphocarrier protein HPr (Bacillus subtilis), P08877 (parent)
chain: MAQKTFKVTADSGIHARPATVLVQTASKYDADVNLEYNGKTVNLKSIMGVMSLGIAKGAEITISASGADENDALNALEETMKSEGLGE
partner: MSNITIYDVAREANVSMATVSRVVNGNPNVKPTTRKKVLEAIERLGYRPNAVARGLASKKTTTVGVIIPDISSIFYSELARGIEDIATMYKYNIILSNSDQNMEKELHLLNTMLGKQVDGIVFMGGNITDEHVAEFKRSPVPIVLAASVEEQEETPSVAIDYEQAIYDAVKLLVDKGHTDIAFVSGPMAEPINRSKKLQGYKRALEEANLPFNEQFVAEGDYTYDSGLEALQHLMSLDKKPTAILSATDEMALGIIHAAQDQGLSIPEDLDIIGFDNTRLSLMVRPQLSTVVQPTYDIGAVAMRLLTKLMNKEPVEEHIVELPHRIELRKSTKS

The variants in this experiment derive from B1. The settings on record: with ccpa_bacsu ccpA.
Regarding S46A, the “effect of a mutation on the interaction” value is listed as “disrupting interaction”.
